Columns and labels:
[1] = biological target: T1, 4-1BB-Fc (human, UniProt Q07011 24-186); assay: ELISA, coated receptor-Fc
T1 construct: extracellular domain; hinge included for covalent assembly; also called 4-1BB receptor-Fc fusion protein; not shown: human Fc gamma 1 region including the hinge region

[2] = biological target: CD40 receptor on cells (human, UniProt P25942 21-277); assay: cell-based or functional assay
[3] = biological target: T2, CD40-Fc (human, UniProt P25942 21-193); assay: ELISA, coated receptor-Fc
T2 construct: extracellular domain; hinge included for covalent assembly; also called CD40 receptor-Fc fusion protein; not shown: human Fc gamma 1 region including the hinge region
T2 sequence (P25942 21-193 limits assumed): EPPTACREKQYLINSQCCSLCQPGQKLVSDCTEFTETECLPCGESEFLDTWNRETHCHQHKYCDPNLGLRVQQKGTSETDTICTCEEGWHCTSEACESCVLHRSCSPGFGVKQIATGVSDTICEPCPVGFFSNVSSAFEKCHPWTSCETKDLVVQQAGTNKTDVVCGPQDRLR
Experimental: (§1) Receptor binding of the EHD2-scDuokines was analyzed by ELISA using fusion proteins of the extracellular region of CD40, CD27 and 4-1BB, respectively, with the human Fcγ1 region including the hinge region for covalent assembly (CD40-Fc, CD27-Fc, 4-1BB-Fc). Receptor-Fc fusion proteins (200 ng/well) were coated overnight at 4° C. and remaining binding sites were blocked with PBS, 2% skimmed milk powder (2% MPBS).

[4] = biological target: T3, CD27-Fc (human, UniProt P26842 20-191); assay: ELISA, coated receptor-Fc
T3 construct: extracellular domain; hinge included for covalent assembly; also called CD27 receptor-Fc fusion protein; not shown: human Fc gamma 1 region including the hinge region
T3 sequence (looked up): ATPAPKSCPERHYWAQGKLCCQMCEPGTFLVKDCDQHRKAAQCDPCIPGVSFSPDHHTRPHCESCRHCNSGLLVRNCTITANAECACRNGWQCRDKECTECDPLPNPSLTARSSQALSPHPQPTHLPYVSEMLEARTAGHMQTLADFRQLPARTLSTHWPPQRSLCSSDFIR
Experimental: as §1

Sequence of CD40 receptor on cells (P25942 21-277): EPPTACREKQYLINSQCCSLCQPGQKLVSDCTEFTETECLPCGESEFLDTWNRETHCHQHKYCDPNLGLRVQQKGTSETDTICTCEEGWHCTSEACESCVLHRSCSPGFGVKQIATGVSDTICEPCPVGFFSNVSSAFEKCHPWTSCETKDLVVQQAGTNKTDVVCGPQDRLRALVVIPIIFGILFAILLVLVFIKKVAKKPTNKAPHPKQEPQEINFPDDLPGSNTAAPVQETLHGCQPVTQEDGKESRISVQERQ

B1: scCD40L-EHD2-scCD27L (ligand)
chain: GDQNPQIAAHVISEASSKTTSVLQWAEKGYYTMSNNLVTLENGKQLTVKRQGLYYIYAQVTFCSNREASSQAPFIASLCLKSPGRFERILLRAANTHSSAKPCGQQSIHLGGVFELQPGASVFVNVTDPSQVSHGTGFTSFGLLKLGGGSGGGGDQNPQIAAHVISEASSKTTSVLQWAEKGYYTMSNNLVTLENGKQLTVKRQGLYYIYAQVTFCSNREASSQAPFIASLCLKSPGRFERILLRAANTHSSAKPCGQQSIHLGGVFELQPGASVFVNVTDPSQVSHGTGFTSFGLLKLGGGSGGGGDQNPQIAAHVISEASSKTTSVLQWAEKGYYTMSNNLVTLENGKQLTVKRQGLYYIYAQVTFCSNREASSQAPFIASLCLKSPGRFERILLRAANTHSSAKPCGQQSIHLGGVFELQPGASVFVNVTDPSQVSHGTGFTSFGLLKLGGSGGDFTPPTVKILQSSCDGGGHFPPTIQLLCLVSGYTPGTINITWLEDGQVMDVDLSTASTTQEGELASTQSELTLSQKHWLSDRTYTCQVTYQGHTFEDSTKKCADSNGGSGGSLGWDVAELQLNHTGPQQDPRLYWQGGPALGRSFLHGPELDKGQLRIHRDGIYMVHIQVTLAICSSTTASRHHPTTLAVGICSPASRSISLLRLSFHQGCTIASQRLTPLARGDTLCTNLTGTLLPSRNTDETFFGVQWVRPGGGSGGGSLGWDVAELQLNHTGPQQDPRLYWQGGPALGRSFLHGPELDKGQLRIHRDGIYMVHIQVTLAICSSTTASRHHPTTLAVGICSPASRSISLLRLSFHQGCTIASQRLTPLARGDTLCTNLTGTLLPSRNTDETFFGVQWVRPGGGSGGGSLGWDVAELQLNHTGPQQDPRLYWQGGPALGRSFLHGPELDKGQLRIHRDGIYMVHIQVTLAICSSTTASRHHPTTLAVGICSPASRSISLLRLSFHQGCTIASQRLTPLARGDTLCTNLTGTLLPSRNTDETFFGVQWVRP
notes: From HEK293; Ig kappa leader left out; dimer through EHD2, about 50% covalently linked, SEC major peak at monomer size; also called EHD2-scDuokine scCD40L-EHD2-scCD27L; not shown: N-terminal FLAG tag
[1]
  binding result: no binding (tested: 100 nM (FIG. 16))
[2]
  Receptor activation (EC50, nM), IL-8 release from HT1080 cells: 2 nM
[3]
  EC50: 4.05 nM
[4]
  EC50: 2.03 nM

Source: patent publication US20190276511A1 (BIONTECH RNA PHARMACEUTICALS, published 2019)
